From US20200354457A1 (Hoffmann-La Roche, published 2020)
“And” between values parts separate entries of the source, which are not always exact repeats. Equal values may be shown once.

Legend:
[1] = target: T1, recombinant human LAG3 Fc Chimera Protein (R&D Systems, 2319-L3) (human, UniProt P18627 23-450); assay: SPR (Biacore), aVH-Fc captured by anti-human Fc, human LAG-3 Fc chimera as analyte, 25 C
T1 construct: Bought reagent
T1 sequence (looked up): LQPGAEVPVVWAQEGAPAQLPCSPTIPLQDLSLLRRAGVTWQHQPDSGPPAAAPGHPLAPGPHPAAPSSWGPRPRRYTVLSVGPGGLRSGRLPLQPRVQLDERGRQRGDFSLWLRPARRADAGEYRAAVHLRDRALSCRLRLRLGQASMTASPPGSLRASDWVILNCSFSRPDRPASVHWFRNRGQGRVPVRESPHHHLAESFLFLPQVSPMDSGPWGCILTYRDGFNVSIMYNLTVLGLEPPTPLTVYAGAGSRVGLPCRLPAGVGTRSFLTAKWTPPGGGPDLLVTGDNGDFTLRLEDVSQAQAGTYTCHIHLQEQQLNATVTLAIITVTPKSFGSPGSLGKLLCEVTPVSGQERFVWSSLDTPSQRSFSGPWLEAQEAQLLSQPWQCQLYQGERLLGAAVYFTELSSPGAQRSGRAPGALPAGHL

[2] = target: T2, murine LAG3-Fc antigen (R&D Systems, 3328-L3-050) (murine, UniProt Q61790 24-442); assay: ELISA using murine LAG3-Fc antigen
T2 construct: Bought reagent
T2 sequence (looked up): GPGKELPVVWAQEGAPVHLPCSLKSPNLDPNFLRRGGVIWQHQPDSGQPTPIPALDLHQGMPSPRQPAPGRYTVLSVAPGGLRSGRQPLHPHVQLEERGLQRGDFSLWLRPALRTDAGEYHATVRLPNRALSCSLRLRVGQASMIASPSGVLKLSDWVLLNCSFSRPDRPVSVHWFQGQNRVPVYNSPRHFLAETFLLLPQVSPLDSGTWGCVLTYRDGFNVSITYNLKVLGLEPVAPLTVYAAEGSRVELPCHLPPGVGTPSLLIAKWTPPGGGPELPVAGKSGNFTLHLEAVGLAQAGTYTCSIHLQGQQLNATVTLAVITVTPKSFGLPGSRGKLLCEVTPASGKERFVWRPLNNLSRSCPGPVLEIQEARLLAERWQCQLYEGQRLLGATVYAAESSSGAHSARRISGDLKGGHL

[3] = target: T3, human LAG3 on recombinant CHO cells (human, UniProt P18627 23-525); assay: cell ELISA on CHO cells expressing human LAG3;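 also: bivalent Fc-format binders titrated in threefold steps from 6 µg/mL, incubated with the cells 2 h at 4 °C, bound antibody detected by HRP-coupled anti-human IgG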
T3 construct: whole, on cells; also called Lag3 cells; recombinant CHO cells expressing Lag3
T3 sequence (looked up): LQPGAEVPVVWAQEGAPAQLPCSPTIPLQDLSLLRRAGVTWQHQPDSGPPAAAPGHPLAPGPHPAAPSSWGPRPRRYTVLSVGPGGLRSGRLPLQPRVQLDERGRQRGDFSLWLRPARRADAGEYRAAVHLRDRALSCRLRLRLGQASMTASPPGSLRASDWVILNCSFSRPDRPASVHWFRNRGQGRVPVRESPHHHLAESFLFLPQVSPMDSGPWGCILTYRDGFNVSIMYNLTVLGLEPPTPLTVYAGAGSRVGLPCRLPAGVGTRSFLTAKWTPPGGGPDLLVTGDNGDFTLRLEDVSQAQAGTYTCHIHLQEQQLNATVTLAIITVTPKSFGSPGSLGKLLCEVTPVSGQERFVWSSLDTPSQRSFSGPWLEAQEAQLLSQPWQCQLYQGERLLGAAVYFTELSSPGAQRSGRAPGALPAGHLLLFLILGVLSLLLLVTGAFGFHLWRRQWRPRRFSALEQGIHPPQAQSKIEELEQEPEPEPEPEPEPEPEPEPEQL

[4] = target: T4, cynomolgus LAG3 on transiently transfected HEK293F cells (cynomolgus); assay: flow cytometry on HEK293F cells transfected with cyno LAG3, 10 µg/ml
T4 construct: whole, on cells; also called cyno LAG3; cynomolgus Lag3-positive HEK cells

[5] = target: T5, soluble human Lag3-IgG1-Fc with biotinylated C-terminal Avi-tag (human, biotin on the C-terminal Avi-tag); assay: A375 MHCII competition ELISA at 3 µg/ml, biotinylated Lag3 250 ng/ml; competitor MHCII on A375 cells
T5 construct: also called LAG3-Fc-avi; biotinylated LAG3-Fc antigen

[6] = target: T1, recombinant human LAG3 Fc Chimera …; assay: ELISA, plate coated with human LAG3 Fc chimera
[7] = target: T6, Lag3 on Lag3+ NFAT Jurkat effector cells (Promega #CS194801); assay: cell-based or functional assay
[8] = target: T5, soluble human Lag3-IgG1-Fc with …; assay: A375 MHCII competition ELISA, biotinylated Lag3 250 ng/ml; competitor MHCII on A375 cells
[9] = target: T6, Lag3 on Lag3+ NFAT Jurkat effector …; assay: cell-based or functional assay; remark: listed apart in the source
[10] = target: T7, Lag3 on cynomolgus PBMC/T cells (cynomolgus); assay: flow cytometry, non-activated cynomolgus PBMC, 10 µg/ml
T7 construct: whole, on cells

[11] = target: T7, Lag3 on cynomolgus PBMC/T cells; assay: flow cytometry, CD3/CD28-activated cynomolgus PBMC, 10 µg/ml

Row | Binder | koff [1] | t1/2 [1] | binding result [2] | EC50 [3] | OD max [3] | LAG3 positive cells (%) [4] | Signal intensity (Geo Mean) [4] | % Inhibition [5] | EC50 [6] | OD max [6] | EC50 of restoration of the NFAT luciferase signal (NFAT Lag3 reporter assay: Lag3+ Jurkat, Raji cells, SED) [7] | IC50 [8] | IC50 for near-complete reduction of luciferase activity (modified NFAT Lag3 reporter assay, Lag3+ Jurkat cells alone) [9] | Percentage of Lag3 positive cells [10] | Percentage of Lag3 positive cells [11]
1 | bivalent 21B11 aVH-Fc (Fc fusion) EVQLVESGGGLVQPGGSLRLSCAASGFNIKDTCIGWVRRAPGKGTELVAEICQDIGYTRYADSVKGRFTISADTSKNTAYLQMNSLRAEDTAVYYCAADESVDNFKYWGQGTTVTVSSGGGGSGGGGSDKTHTCPPCPAPEAAGGPSVFLFPPKPKDTLMISRTPEVTCVVVDVSHEDPEVKFNWYVDGVEVHNAKTKPREEQYNSTYRVVSVLTVLHQDWLNGKEYKCKVSNKALGAPIEKTISKAKGQPREPQVYTLPPSRDELTKNQVSLTCLVKGFYPSDIAVEWESNGQPENNYKTTPPVLDSDGSFFLYSKLTVDKSRWQQGNVFSCSVMHEALHNHYTQKSLSLSPGK | 1.8e-05 s⁻¹ | 1.78 h | no binding | 0.0428 µg/mL and 0.6 nM | 1.3 OD | 78.9% | 2750 Geo Mean | 96.7% | 0.0157 µg/mL and 0.2 nM | 1.1 OD | 0.6 µg/mL | 0.113 µg/mL and 1.5 nM | 0.064 µg/mL | – | –
2 | bivalent P21A03 aVH-Fc (Fc fusion) EVQLVESGGGLVQPGGSLRLSCAASGFNIKDTCIGWVRRAPGKGTELVAEICEDIGYTRYADSVKGRFTISADTSKNTAYLQMNSLRAEDTAVYYCAANEHSVGFNYWGQGTTVTVSSGGGGSGGGGSDKTHTCPPCPAPEAAGGPSVFLFPPKPKDTLMISRTPEVTCVVVDVSHEDPEVKFNWYVDGVEVHNAKTKPREEQYNSTYRVVSVLTVLHQDWLNGKEYKCKVSNKALGAPIEKTISKAKGQPREPQVYTLPPSRDELTKNQVSLTCLVKGFYPSDIAVEWESNGQPENNYKTTPPVLDSDGSFFLYSKLTVDKSRWQQGNVFSCSVMHEALHNHYTQKSLSLSPGK | 1e-05 s⁻¹ | 19.3 h | no binding | 0.0401 µg/mL and 0.5 nM | 1.2 OD | – | – | 97.4% | 0.0901 µg/mL and 1.2 nM | 1.8 OD | 3.31 µg/mL | 0.0581 µg/mL and 0.8 nM | 0.078 µg/mL | 20.8% | 52.2%
3 | bivalent 19G3 aVH-Fc (Fc fusion) EVQLVESGGGLVQPGGSLRLSCAASGFNIKYQCIGWVRRAPGKGTELVAEICSYDGYTRYADSVKGRFTISADTSKNTAYLQMNSLRAEDTAVYYCAAEESVEGFIYWGQGTTVTVSSGGGGSGGGGSDKTHTCPPCPAPEAAGGPSVFLFPPKPKDTLMISRTPEVTCVVVDVSHEDPEVKFNWYVDGVEVHNAKTKPREEQYNSTYRVVSVLTVLHQDWLNGKEYKCKVSNKALGAPIEKTISKAKGQPREPQVYTLPPSRDELTKNQVSLTCLVKGFYPSDIAVEWESNGQPENNYKTTPPVLDSDGSFFLYSKLTVDKSRWQQGNVFSCSVMHEALHNHYTQKSLSLSPGK | 0.00029 s⁻¹ | 0.672 h | no binding | 0.0636 µg/mL and 0.8 nM | 1.3 OD | 80.3% | 2560 Geo Mean | 91.9% | 0.0342 µg/mL and 0.5 nM | 1 OD | – | 0.224 µg/mL and 3 nM | – | 17% | 54.3%
4 | bivalent P9G1 aVH-Fc (Fc fusion) EVQLVESGGGLVQPGGSLRLSCAASGFNIKDTCIGWVRRAPGKGTELVAEICQDIGYTRYADSVKGRFTISADTSKNTAYLQMNSLRAEDTAVYYCAGEEGATNFKYWGQGTTVTVSSGGGGSGGGGSDKTHTCPPCPAPEAAGGPSVFLFPPKPKDTLMISRTPEVTCVVVDVSHEDPEVKFNWYVDGVEVHNAKTKPREEQYNSTYRVVSVLTVLHQDWLNGKEYKCKVSNKALGAPIEKTISKAKGQPREPQVYTLPPSRDELTKNQVSLTCLVKGFYPSDIAVEWESNGQPENNYKTTPPVLDSDGSFFLYSKLTVDKSRWQQGNVFSCSVMHEALHNHYTQKSLSLSPGK | 2e-05 s⁻¹ | 9.82 h | no binding | 0.0173 µg/mL and 0.2 nM | 1.2 OD | – | – | 96.3% | 0.0132 µg/mL and 0.2 nM | 1.9 OD | 0.65 µg/mL | 0.0408 µg/mL and 0.5 nM | 0.038 µg/mL | 24.4% | 54.1%
5 | bivalent P10C3 aVH-Fc (Fc fusion) EVQLVESGGGLVQPGGSLRLSCAASGFNIKDTCIGWVRRAPGKGTELVAEICTDAGYTRYADSVKGRFTISADTSKNTAYLQMNSLRAEDTAVYYCAASESPSGFRYWGQGTTVTVSSGGGGSGGGGSDKTHTCPPCPAPEAAGGPSVFLFPPKPKDTLMISRTPEVTCVVVDVSHEDPEVKFNWYVDGVEVHNAKTKPREEQYNSTYRVVSVLTVLHQDWLNGKEYKCKVSNKALGAPIEKTISKAKGQPREPQVYTLPPSRDELTKNQVSLTCLVKGFYPSDIAVEWESNGQPENNYKTTPPVLDSDGSFFLYSKLTVDKSRWQQGNVFSCSVMHEALHNHYTQKSLSLSPGK | 8.9e-05 s⁻¹ | 2.17 h | no binding | 0.0735 µg/mL and 1 nM | 1.2 OD | – | – | 84.9% | 0.123 µg/mL and 1.6 nM | 0.8 OD | 3.9 µg/mL | 0.242 µg/mL and 3.2 nM | – | – | –
6 | bivalent P10D1 aVH-Fc (Fc fusion) EVQLVESGGGLVQPGGSLRLSCAASGFSIKDTCIAWVRRAPGKGTELVAEICEDIGYTRYADSVKGRFTISADTSKNTAYLQMNSLRAEDTAVYYCAAKEAGVGFDYWGQGTTVTVSSGGGGSGGGGSDKTHTCPPCPAPEAAGGPSVFLFPPKPKDTLMISRTPEVTCVVVDVSHEDPEVKFNWYVDGVEVHNAKTKPREEQYNSTYRVVSVLTVLHQDWLNGKEYKCKVSNKALGAPIEKTISKAKGQPREPQVYTLPPSRDELTKNQVSLTCLVKGFYPSDIAVEWESNGQPENNYKTTPPVLDSDGSFFLYSKLTVDKSRWQQGNVFSCSVMHEALHNHYTQKSLSLSPGK | 0.00011 s⁻¹ | 1.7 h | no binding | 0.029 µg/mL and 0.4 nM | 1.2 OD | – | – | 93.4% | 0.113 µg/mL and 1.5 nM | 0.9 OD | 4.14 µg/mL | 0.0933 µg/mL and 1.2 nM | 0.104 µg/mL | 16.9% | 61.7%
